According to the supplement of paper PMC9112550, “Optimization of the antimicrobial peptide Bac7 by deep mutational scanning” (BMC Biology, 2022):

Tested on: Escherichia coli TOP10
Assay: shrunken log2 fold change of peptide-encoding DNA abundance (4.5 h post-induction vs induction); higher = less antimicrobial activity (less host growth inhibition)
Settings: time post-induction: 4.5 h; library: site-saturation at positions 5, 18, 19, 20
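Note: peptides expressed intracellularly from a pBAD plasmid library in pooled LB shake-flask culture, induced with 0.3% L-arabinose, DNA abundance read by NGS, three biological replicates, DESeq2 with apeglm shrinkage.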

Row | Sequence | shrunken log2 fold change
1 | RRIRHRPPRLPRPRPRPPGGPRP | 0.443
2 | RRIRDRPPRLPRPRPRPTGNPRP | 0.195
3 | RRIRHRPPRLPRPRPRPSWSPRP | -0.235
4 | RRIRHRPPRLPRPRPRPCMEPRP | -0.0962
5 | RRIRVRPPRLPRPRPRPGWWPRP | 0.115
6 | RRIRPRPPRLPRPRPRPWQTPRP | -0.0715
7 | RRIRLRPPRLPRPRPRPNYKPRP | -0.752
8 | RRIRIRPPRLPRPRPRPEDDPRP | -0.16
9 | RRIRTRPPRLPRPRPRPMQWPRP | 0.0688
10 | RRIRKRPPRLPRPRPRPRSTPRP | 0.177
11 | RRIRVRPPRLPRPRPRPEQPPRP | 0.515
12 | RRIRHRPPRLPRPRPRPHASPRP | 0.00288
13 | RRIRCRPPRLPRPRPRPLCFPRP | -0.0241
14 | RRIRLRPPRLPRPRPRPMTKPRP | 0.0751
15 | RRIRGRPPRLPRPRPRPIRLPRP | -0.0112
16 | RRIRHRPPRLPRPRPRPADHPRP | 0.134
17 | RRIRRRPPRLPRPRPRPVCDPRP | 0.621
18 | RRIRARPPRLPRPRPRPCPCPRP | -0.0932
19 | RRIRMRPPRLPRPRPRPILEPRP | 0.142
20 | RRIRARPPRLPRPRPRPARCPRP | 0.331
21 | RRIRFRPPRLPRPRPRPHEGPRP | 0.0417
22 | RRIRRRPPRLPRPRPRPFLNPRP | -0.0441
23 | RRIRDRPPRLPRPRPRPGRYPRP | -0.134
24 | RRIRKRPPRLPRPRPRPACRPRP | 0.789
25 | RRIRHRPPRLPRPRPRPPWGPRP | 0.347

Row | Sequence | shrunken log2 fold change
26 | RRIRRRPPRLPRPRPRPEKHPRP | 0.121
27 | RRIRIRPPRLPRPRPRPTTVPRP | -0.319
28 | RRIRHRPPRLPRPRPRPWLTPRP | -0.00695
29 | RRIRTRPPRLPRPRPRPIGMPRP | 0.0258
30 | RRIRARPPRLPRPRPRPSAFPRP | 0.54
31 | RRIRPRPPRLPRPRPRPYPCPRP | -0.134
32 | RRIRTRPPRLPRPRPRPYMWPRP | -0.233
33 | RRIRGRPPRLPRPRPRPNPRPRP | 0.684
34 | RRIRYRPPRLPRPRPRPIQGPRP | -0.0804
35 | RRIRNRPPRLPRPRPRPHNNPRP | -1.05
36 | RRIRVRPPRLPRPRPRPGYGPRP | 0.0756
37 | RRIRSRPPRLPRPRPRPYCYPRP | -0.0398
38 | RRIRHRPPRLPRPRPRPQVHPRP | -0.213
39 | RRIRQRPPRLPRPRPRPCDNPRP | -0.269
40 | RRIRFRPPRLPRPRPRPHYDPRP | -0.397
41 | RRIRERPPRLPRPRPRPPRQPRP | 0.26
42 | RRIRTRPPRLPRPRPRPMDHPRP | -0.31
43 | RRIRARPPRLPRPRPRPMADPRP | 0.357
44 | RRIRNRPPRLPRPRPRPCINPRP | -0.548
45 | RRIRARPPRLPRPRPRPDFKPRP | 0.00723
46 | RRIRLRPPRLPRPRPRPQLRPRP | -0.00627
47 | RRIRFRPPRLPRPRPRPAHEPRP | 0.0902
48 | RRIRVRPPRLPRPRPRPEGPPRP | 0.239
49 | RRIRRRPPRLPRPRPRPDCVPRP | -0.0143
50 | RRIRLRPPRLPRPRPRPTAGPRP | 0.53

Row | Sequence | shrunken log2 fold change
51 | RRIRQRPPRLPRPRPRPVARPRP | 0.0118
52 | RRIRERPPRLPRPRPRPVATPRP | 0.124
53 | RRIRERPPRLPRPRPRPVDTPRP | 0.000639
54 | RRIRERPPRLPRPRPRPCGFPRP | -0.303
55 | RRIRMRPPRLPRPRPRPHVSPRP | -0.0138
56 | RRIRSRPPRLPRPRPRPENSPRP | -0.0239
57 | RRIRQRPPRLPRPRPRPCDPPRP | -0.0819
58 | RRIRFRPPRLPRPRPRPRYNPRP | -0.323
59 | RRIRMRPPRLPRPRPRPISTPRP | 0.166
60 | RRIRSRPPRLPRPRPRPKLYPRP | -0.199
61 | RRIRKRPPRLPRPRPRPTTMPRP | 0.171
62 | RRIRHRPPRLPRPRPRPCCIPRP | -0.0109
63 | RRIRNRPPRLPRPRPRPMAGPRP | 0.0481
64 | RRIRSRPPRLPRPRPRPCMFPRP | -0.258
65 | RRIRYRPPRLPRPRPRPTEHPRP | -0.501
66 | RRIRYRPPRLPRPRPRPTTSPRP | -0.382
67 | RRIRPRPPRLPRPRPRPNISPRP | -0.208
68 | RRIRRRPPRLPRPRPRPAVWPRP | 0.399
69 | RRIRDRPPRLPRPRPRPGSHPRP | 0.235
70 | RRIRKRPPRLPRPRPRPYNKPRP | -0.626
71 | RRIRYRPPRLPRPRPRPCAMPRP | 0.0865
72 | RRIRWRPPRLPRPRPRPGPGPRP | 0.899
73 | RRIRIRPPRLPRPRPRPFFNPRP | -0.501
74 | RRIRMRPPRLPRPRPRPSYIPRP | -0.275
75 | RRIRARPPRLPRPRPRPITAPRP | 0.232

Row | Sequence | shrunken log2 fold change
76 | RRIRHRPPRLPRPRPRPNWMPRP | 0.00348
77 | RRIRMRPPRLPRPRPRPWGRPRP | 0.389
78 | RRIRPRPPRLPRPRPRPWIEPRP | -0.162
79 | RRIRDRPPRLPRPRPRPICYPRP | 0.204
80 | RRIRNRPPRLPRPRPRPTDPPRP | 0.162
81 | RRIRPRPPRLPRPRPRPSTDPRP | -0.207
82 | RRIRKRPPRLPRPRPRPNGCPRP | -0.0163
83 | RRIRYRPPRLPRPRPRPNVCPRP | 0.00285
84 | RRIRERPPRLPRPRPRPQIQPRP | 0.136
85 | RRIRKRPPRLPRPRPRPCTYPRP | 0.0972
86 | RRIRKRPPRLPRPRPRPHPWPRP | 0.353
87 | RRIRLRPPRLPRPRPRPQQCPRP | 0.146
88 | RRIRRRPPRLPRPRPRPSYTPRP | -0.227
89 | RRIRGRPPRLPRPRPRPHPCPRP | 0.922
90 | RRIRNRPPRLPRPRPRPLTTPRP | -0.07
91 | RRIRQRPPRLPRPRPRPWRMPRP | -0.421
92 | RRIRVRPPRLPRPRPRPMGTPRP | 0.113
93 | RRIRARPPRLPRPRPRPFVCPRP | -0.476
94 | RRIRQRPPRLPRPRPRPGFGPRP | 0.245
95 | RRIRCRPPRLPRPRPRPNILPRP | -0.701
96 | RRIRMRPPRLPRPRPRPCCMPRP | -0.167
97 | RRIRNRPPRLPRPRPRPFSEPRP | -0.0347
98 | RRIRTRPPRLPRPRPRPGVSPRP | -0.221
99 | RRIRTRPPRLPRPRPRPTCWPRP | 0.00427
100 | RRIRGRPPRLPRPRPRPRKCPRP | 0.666

Row | Sequence | shrunken log2 fold change
101 | RRIRSRPPRLPRPRPRPAKTPRP | 0.111
102 | RRIRIRPPRLPRPRPRPHSAPRP | -0.143
103 | RRIRTRPPRLPRPRPRPTIVPRP | -0.0242
104 | RRIRARPPRLPRPRPRPKTMPRP | 0.352
105 | RRIRARPPRLPRPRPRPLLTPRP | 0.667
106 | RRIRMRPPRLPRPRPRPCAKPRP | 0.207
107 | RRIRPRPPRLPRPRPRPDSRPRP | 0.0317
108 | RRIRVRPPRLPRPRPRPKHYPRP | -0.459
109 | RRIRSRPPRLPRPRPRPHTAPRP | -0.175
110 | RRIRLRPPRLPRPRPRPKANPRP | 0.0584
111 | RRIRVRPPRLPRPRPRPYKTPRP | 0.0577
112 | RRIRCRPPRLPRPRPRPKFQPRP | -0.0341
113 | RRIRSRPPRLPRPRPRPAAQPRP | 0.833
114 | RRIRFRPPRLPRPRPRPAFQPRP | 0.243
115 | RRIRCRPPRLPRPRPRPLSIPRP | -0.917
116 | RRIRLRPPRLPRPRPRPLNQPRP | -0.917
117 | RRIRFRPPRLPRPRPRPIPCPRP | -0.256
118 | RRIRRRPPRLPRPRPRPDPAPRP | 1.18
119 | RRIRERPPRLPRPRPRPLGPPRP | 0.099
120 | RRIRERPPRLPRPRPRPYMEPRP | 0.0111
121 | RRIRYRPPRLPRPRPRPAIWPRP | 0.0587
122 | RRIRNRPPRLPRPRPRPPWCPRP | 0.108
123 | RRIRPRPPRLPRPRPRPMRKPRP | 0.365
124 | RRIRIRPPRLPRPRPRPEHIPRP | -0.142
125 | RRIRMRPPRLPRPRPRPHLLPRP | 0.137
